Numbered stars: 1 amine (or outer) side, 2 acyl side, 3 side chain; on linkers, the order of the positions; unused ones are H or OH. Bridge positions count the residues as written; N and C are the ends. Side chains are listed from the residue outwards. Ends that are not written are not given here. * marks the point of attachment. C20 diacid = O=C(O)CCCCCCCCCCCCCCCCCCC(=O)*; γGlu = O=C(O)[C@H](CCC(=O)[*:2])N[*:1]; AEEA = NCCOCCOCC(=O)O
T1: rat amylin receptor (rat calcitonin receptor + rat RAMP 3) (rat, UniProt P32214 25-516; Q9JJ73 23-147)
T1 construct: whole, on cells; Membranes of BHK tk'ts 13 cells transiently transfected with the rat calcitonin receptor and rat RAMP 3; also called rAmylin-R; rat amylin 3(a) receptor
T1 sequence (looked up) 1: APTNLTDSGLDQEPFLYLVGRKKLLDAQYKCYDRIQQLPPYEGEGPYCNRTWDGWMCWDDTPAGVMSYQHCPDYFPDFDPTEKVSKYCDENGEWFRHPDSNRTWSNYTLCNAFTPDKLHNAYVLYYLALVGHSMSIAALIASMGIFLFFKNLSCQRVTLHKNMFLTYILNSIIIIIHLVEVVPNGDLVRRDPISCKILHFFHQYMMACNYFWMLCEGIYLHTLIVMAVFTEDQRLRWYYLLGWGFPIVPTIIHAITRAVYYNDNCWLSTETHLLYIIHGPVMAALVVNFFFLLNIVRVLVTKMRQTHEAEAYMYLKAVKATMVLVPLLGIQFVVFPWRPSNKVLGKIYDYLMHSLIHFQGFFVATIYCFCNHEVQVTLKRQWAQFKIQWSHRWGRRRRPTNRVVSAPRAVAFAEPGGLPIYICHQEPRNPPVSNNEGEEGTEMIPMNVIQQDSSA
T1 sequence (looked up) 2: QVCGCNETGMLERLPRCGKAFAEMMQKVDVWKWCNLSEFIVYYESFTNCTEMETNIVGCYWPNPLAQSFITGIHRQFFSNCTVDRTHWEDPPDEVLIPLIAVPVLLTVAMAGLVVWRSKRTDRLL

T2: rat calcitonin receptor (rat, UniProt P32214 25-516)
T2 construct: whole, on cells; Membranes of BHK tk'ts 13 cells transiently transfected with the rat calcitonin receptor; also called rCTR; rat calcitonin (a) receptor
T2 sequence (looked up): T1 sequence (looked up) 1

T3: human calcitonin receptor (human, UniProt P30988 25-474)
T3 construct: whole, on cells; Membranes of a BHK tk'ts 13 cell line stably transfected with the human calcitonin receptor; also called hCTR; hCT
T3 sequence (looked up): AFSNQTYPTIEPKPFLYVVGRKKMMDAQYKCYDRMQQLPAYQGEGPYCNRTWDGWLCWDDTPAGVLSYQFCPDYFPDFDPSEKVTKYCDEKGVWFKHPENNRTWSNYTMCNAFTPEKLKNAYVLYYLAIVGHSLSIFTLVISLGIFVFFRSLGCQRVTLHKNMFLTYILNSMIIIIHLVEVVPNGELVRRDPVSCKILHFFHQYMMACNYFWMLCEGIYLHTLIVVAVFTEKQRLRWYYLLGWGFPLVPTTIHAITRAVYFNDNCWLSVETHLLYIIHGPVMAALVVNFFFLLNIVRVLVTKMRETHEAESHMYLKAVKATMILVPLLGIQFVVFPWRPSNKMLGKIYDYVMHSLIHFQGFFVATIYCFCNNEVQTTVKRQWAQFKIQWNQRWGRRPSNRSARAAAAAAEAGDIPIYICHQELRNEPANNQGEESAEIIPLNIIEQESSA

B1: N^ε1-[(4S)-4-carboxy-4-[[(4S)-4-carboxy-4-(19-carboxynonadecanoylamino)butanoyl]amino]butanoyl]-[Asp14,Arg17,Pro22,Pro26,Asp35]-h-amylin (peptide)
peptide: K([γGlu-γGlu-C20 diacid])CNTATCATQRLADFLRHSSNPFGAPLSSTNVGSDTY-NH2
modifications: disulfide 2-7; N-terminus assumed
SMILES: CC(C)C[C@H](NC(=O)[C@H](CCCNC(=N)N)NC(=O)[C@H](CCC(N)=O)NC(=O)[C@@H](NC(=O)[C@H](C)NC(=O)[C@@H]1CSSC[C@H](NC(=O)[C@@H](N)CCCCNC(=O)CC[C@H](NC(=O)CC[C@H](NC(=O)CCCCCCCCCCCCCCCCCCC(=O)O)C(=O)O)C(=O)O)C(=O)N[C@@H](CC(N)=O)C(=O)N[C@@H]([C@@H](C)O)C(=O)N[C@@H](C)C(=O)N[C@@H]([C@@H](C)O)C(=O)N1)[C@@H](C)O)C(=O)N[C@@H](C)C(=O)N[C@@H](CC(=O)O)C(=O)N[C@@H](Cc1ccccc1)C(=O)N[C@@H](CC(C)C)C(=O)N[C@@H](CCCNC(=N)N)C(=O)N[C@@H](Cc1c[nH]cn1)C(=O)N[C@@H](CO)C(=O)N[C@@H](CO)C(=O)N[C@@H](CC(N)=O)C(=O)N1CCC[C@H]1C(=O)N[C@@H](Cc1ccccc1)C(=O)NCC(=O)N[C@@H](C)C(=O)N1CCC[C@H]1C(=O)N[C@@H](CC(C)C)C(=O)N[C@@H](CO)C(=O)N[C@@H](CO)C(=O)N[C@H](C(=O)N[C@@H](CC(N)=O)C(=O)N[C@H](C(=O)NCC(=O)N[C@@H](CO)C(=O)N[C@@H](CC(=O)O)C(=O)N[C@H](C(=O)N[C@@H](Cc1ccc(O)cc1)C(N)=O)[C@@H](C)O)C(C)C)[C@@H](C)O
notes: modifications are with respect to human amylin; also called compound 3
B2: N{Alpha-1}-[(4S)-4-carboxy-4-(19-carboxynonadecanoylamino)butanoyl]-[Glu14,Arg17,Pro21,Pro27,Lys34]-h-amylin (peptide)
peptide: {C20 diacid-γGlu}-KCNTATCATQRLAEFLRHSSPNFGAIPSSTNVGKNTY-NH2
modifications: disulfide 2-7
SMILES: CC[C@H](C)[C@H](NC(=O)[C@H](C)NC(=O)CNC(=O)[C@H](Cc1ccccc1)NC(=O)[C@H](CC(N)=O)NC(=O)[C@@H]1CCCN1C(=O)[C@H](CO)NC(=O)[C@H](CO)NC(=O)[C@H](Cc1c[nH]cn1)NC(=O)[C@H](CCCNC(=N)N)NC(=O)[C@H](CC(C)C)NC(=O)[C@H](Cc1ccccc1)NC(=O)[C@H](CCC(=O)O)NC(=O)[C@H](C)NC(=O)[C@H](CC(C)C)NC(=O)[C@H](CCCNC(=N)N)NC(=O)[C@H](CCC(N)=O)NC(=O)[C@@H](NC(=O)[C@H](C)NC(=O)[C@@H]1CSSC[C@H](NC(=O)[C@H](CCCCN)NC(=O)CC[C@H](NC(=O)CCCCCCCCCCCCCCCCCCC(=O)O)C(=O)O)C(=O)N[C@@H](CC(N)=O)C(=O)N[C@@H]([C@@H](C)O)C(=O)N[C@@H](C)C(=O)N[C@@H]([C@@H](C)O)C(=O)N1)[C@@H](C)O)C(=O)N1CCC[C@H]1C(=O)N[C@@H](CO)C(=O)N[C@@H](CO)C(=O)N[C@H](C(=O)N[C@@H](CC(N)=O)C(=O)N[C@H](C(=O)NCC(=O)N[C@@H](CCCCN)C(=O)N[C@@H](CC(N)=O)C(=O)N[C@H](C(=O)N[C@@H](Cc1ccc(O)cc1)C(N)=O)[C@@H](C)O)C(C)C)[C@@H](C)O
notes: modifications are with respect to human amylin; also called compound 36
B3: N^α1-[2-[2-[2-[[2-[2-[2-[[(4S)-4-carboxy-4-(19-carboxynonadecanoylamino)butanoyl]amino]ethoxy]ethoxy]acetyl]amino]ethoxy]ethoxy]acetyl]-[Arg17,Pro21,Pro27]-h-am … (peptide)
peptide: KCNTATCATQRLANFLRHSSPNFGAIPSSTNVGSNTY
modifications: C20 diacid-gGlu-2xOEG on the alpha amino group of the N-terminal residue (Lys 1); disulfide bridge Cys2-Cys7; C-terminal amide
notes: modifications are with respect to human amylin; also called compound 24
B4: N^ε1-[2-[2-[2-[[(4S)-4-carboxy-4-(19-carboxynonadecanoylamino)butanoyl]amino]ethoxy]ethoxy]acetyl]-[Arg17,Pro21,Pro27]-h-amylin (peptide)
peptide: K([AEEA-γGlu-C20 diacid])CNTATCATQRLANFLRHSSPNFGAIPSSTNVGSNTY-NH2
modifications: disulfide 2-7; N-terminus assumed
SMILES: CC[C@H](C)[C@H](NC(=O)[C@H](C)NC(=O)CNC(=O)[C@H](Cc1ccccc1)NC(=O)[C@H](CC(N)=O)NC(=O)[C@@H]1CCCN1C(=O)[C@H](CO)NC(=O)[C@H](CO)NC(=O)[C@H](Cc1c[nH]cn1)NC(=O)[C@H](CCCNC(=N)N)NC(=O)[C@H](CC(C)C)NC(=O)[C@H](Cc1ccccc1)NC(=O)[C@H](CC(N)=O)NC(=O)[C@H](C)NC(=O)[C@H](CC(C)C)NC(=O)[C@H](CCCNC(=N)N)NC(=O)[C@H](CCC(N)=O)NC(=O)[C@@H](NC(=O)[C@H](C)NC(=O)[C@@H]1CSSC[C@H](NC(=O)[C@@H](N)CCCCNC(=O)COCCOCCNC(=O)CC[C@H](NC(=O)CCCCCCCCCCCCCCCCCCC(=O)O)C(=O)O)C(=O)N[C@@H](CC(N)=O)C(=O)N[C@@H]([C@@H](C)O)C(=O)N[C@@H](C)C(=O)N[C@@H]([C@@H](C)O)C(=O)N1)[C@@H](C)O)C(=O)N1CCC[C@H]1C(=O)N[C@@H](CO)C(=O)N[C@@H](CO)C(=O)N[C@H](C(=O)N[C@@H](CC(N)=O)C(=O)N[C@H](C(=O)NCC(=O)N[C@@H](CO)C(=O)N[C@@H](CC(N)=O)C(=O)N[C@H](C(=O)N[C@@H](Cc1ccc(O)cc1)C(N)=O)[C@@H](C)O)C(C)C)[C@@H](C)O
notes: modifications are with respect to human amylin; also called compound 41
B5: N^ε1-[2-[2-[2-(19-carboxynonadecanoylamino)ethoxy]ethoxy]acetyl]-[Arg17,Pro21,Pro27]-h-amylin (peptide)
peptide: K([AEEA-C20 diacid])CNTATCATQRLANFLRHSSPNFGAIPSSTNVGSNTY-NH2
modifications: disulfide 2-7; N-terminus assumed
SMILES: CC[C@H](C)[C@H](NC(=O)[C@H](C)NC(=O)CNC(=O)[C@H](Cc1ccccc1)NC(=O)[C@H](CC(N)=O)NC(=O)[C@@H]1CCCN1C(=O)[C@H](CO)NC(=O)[C@H](CO)NC(=O)[C@H](Cc1c[nH]cn1)NC(=O)[C@H](CCCNC(=N)N)NC(=O)[C@H](CC(C)C)NC(=O)[C@H](Cc1ccccc1)NC(=O)[C@H](CC(N)=O)NC(=O)[C@H](C)NC(=O)[C@H](CC(C)C)NC(=O)[C@H](CCCNC(=N)N)NC(=O)[C@H](CCC(N)=O)NC(=O)[C@@H](NC(=O)[C@H](C)NC(=O)[C@@H]1CSSC[C@H](NC(=O)[C@@H](N)CCCCNC(=O)COCCOCCNC(=O)CCCCCCCCCCCCCCCCCCC(=O)O)C(=O)N[C@@H](CC(N)=O)C(=O)N[C@@H]([C@@H](C)O)C(=O)N[C@@H](C)C(=O)N[C@@H]([C@@H](C)O)C(=O)N1)[C@@H](C)O)C(=O)N1CCC[C@H]1C(=O)N[C@@H](CO)C(=O)N[C@@H](CO)C(=O)N[C@H](C(=O)N[C@@H](CC(N)=O)C(=O)N[C@H](C(=O)NCC(=O)N[C@@H](CO)C(=O)N[C@@H](CC(N)=O)C(=O)N[C@H](C(=O)N[C@@H](Cc1ccc(O)cc1)C(N)=O)[C@@H](C)O)C(C)C)[C@@H](C)O
notes: modifications are with respect to human amylin; also called compound 43
B6: N^ε-[(4S)-4-carboxy-4-(19-carboxynonadecanoylamino)butanoyl]Lys[Arg1,Arg17,Pro21,Pro27,His35]-h-amylin (peptide)
peptide: K([γGlu-C20 diacid])RCNTATCATQRLANFLRHSSPNFGAIPSSTNVGSHTY-NH2
modifications: disulfide 3-8; N-terminus assumed
SMILES: CC[C@H](C)[C@H](NC(=O)[C@H](C)NC(=O)CNC(=O)[C@H](Cc1ccccc1)NC(=O)[C@H](CC(N)=O)NC(=O)[C@@H]1CCCN1C(=O)[C@H](CO)NC(=O)[C@H](CO)NC(=O)[C@H](Cc1c[nH]cn1)NC(=O)[C@H](CCCNC(=N)N)NC(=O)[C@H](CC(C)C)NC(=O)[C@H](Cc1ccccc1)NC(=O)[C@H](CC(N)=O)NC(=O)[C@H](C)NC(=O)[C@H](CC(C)C)NC(=O)[C@H](CCCNC(=N)N)NC(=O)[C@H](CCC(N)=O)NC(=O)[C@@H](NC(=O)[C@H](C)NC(=O)[C@@H]1CSSC[C@H](NC(=O)[C@H](CCCNC(=N)N)NC(=O)[C@@H](N)CCCCNC(=O)CC[C@H](NC(=O)CCCCCCCCCCCCCCCCCCC(=O)O)C(=O)O)C(=O)N[C@@H](CC(N)=O)C(=O)N[C@@H]([C@@H](C)O)C(=O)N[C@@H](C)C(=O)N[C@@H]([C@@H](C)O)C(=O)N1)[C@@H](C)O)C(=O)N1CCC[C@H]1C(=O)N[C@@H](CO)C(=O)N[C@@H](CO)C(=O)N[C@H](C(=O)N[C@@H](CC(N)=O)C(=O)N[C@H](C(=O)NCC(=O)N[C@@H](CO)C(=O)N[C@@H](Cc1c[nH]cn1)C(=O)N[C@H](C(=O)N[C@@H](Cc1ccc(O)cc1)C(N)=O)[C@@H](C)O)C(C)C)[C@@H](C)O
notes: modifications are with respect to human amylin; also called compound 44

Target: T1, rat amylin receptor (rat calcitonin …)
Experiment: SPA competition vs 125I-rat amylin, membranes with rat CTR + rat RAMP3 (Assay VI)

| Binder | IC50 [nM] |
| --- | --- |
| B1 | 1 |
| B2 | 1.86 |
| B3 | 3.01 |
| B4 | 1.37 |
| B5 | 0.11 |
| B6 | 0.369 |

Target: T2, rat calcitonin receptor
Experiment: IC50 at rCTR divided by IC50 at rAmylin-R (reference)

| Binder | Ratio rCT/rAmylin binding |
| --- | --- |
| B1 | 16.7 |
| B2 | 32.4 |
| B3 | 116 |
| B4 | 54 |
| B5 | 69.1 |
| B6 | 53.3 |

Target: T3, human calcitonin receptor
Experiment: IC50 at hCTR divided by IC50 at hAmylin-R (reference)
In short: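 Scintillation proximity competition binding on cell membranes at 35 ng/μL with SPA beads, in 50 mM Hepes pH 7.4, 1 mM CaCl2, 5 mM MgCl₂, 0.1% OA, 0.02% Tween20. Incubated 120 min at 25° C with shaking. IC₅₀ from one-site competition fit.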

| Binder | Ratio hCT/hAmylin binding |
| --- | --- |
| B1 | 17.3 |
| B2 | 15.7 |
| B3 | 90 |
| B4 | 49.9 |
| B5 | 34.7 |
| B6 | 17.7 |

Target: T2, rat calcitonin receptor
Experiment: SPA competition vs 125I-calcitonin, membranes with rat CTR (Assay VIII)

| Binder | IC50 [nM] |
| --- | --- |
| B1 | 16.7 |
| B2 | 60.1 |
| B3 | 350 |
| B4 | 74.1 |
| B5 | 7.6 |
| B6 | 19.6 |

Reference: US20140087995A1 (published 2014)
